Series [1] concerns the target α1-antitrypsin, plasma-derived wild-type (M) (UniProt P01009). As to the kind of experiment: progress curves of intrinsic protein fluorescence (peptide incorporation) + native gel or EMSA; as a5, in the presence of mAb4B12.
Series [2] concerns the molecule itself. As to the kind of experiment: native gel or EMSA; endpoint polymerisation: 0.1 mg/ml heated for 4 h (55°C, or 45-63°C) without antibody during heating; bis-Tris non-denaturing PAGE, Coomassie; polymerisation read as loss of the monomer band.
Series [3] deals with T1, α1-antitrypsin, plasma-derived wild-type (M) (UniProt P01009 25-418).
T1 construct: alpha1-antitrypsin, wild-type 'M' allele, plasma-derived; also called α1-AT; α1-ATWT; source: plasma-derived
As to the kind of experiment: progress curves of intrinsic protein fluorescence (peptide incorporation) + native gel or EMSA; as a5, in the presence of mAb4B12. As to conditions: both partners purified.

Consider Ac-FLAA-NH2 [4-mer peptide Ac-FLAA-NH2], for which, in series [1], the fold increase in the rate of peptide incorporation with mAb4B12 against the non-antibody-bound control is 1.8 fold.

B1: α1-AT_(79-306), disulphide variant Gly79Cys/Leu306Cys (natural protein, UniProt P01009 25-418, looked up)
chain: EDPQGDAAQKTDTSHHDQDHPTFNKITPNLAEFAFSLYRQLAHQSNSTNIFFSPVSIATAFAMLSLGTKADTHDEILECLNFNLTEIPEAQIHEGFQELLRTLNQPDSQLQLTTGNGLFLSEGLKLVDKFLEDVKKLYHSEAFTVNFGDTEEAKKQINDYVEKGTQGKIVDLVKELDRDTVFALVNYIFFKGKWERPFEVKDTEEEDFHVDQVTTVKVPMMKRLGMFNIQHSKKLSSWVLLMKYLGNATAIFFLPDEGKLQHLENELTHDIITKFLENEDRRSASLHLPKLSITGTYDLKSVLGQCGITKVFSNGADLSGVTEEAPLKLSKAVHKAVLTIDEKGTEAAGAMFLEAIPMSIPPEVKFNKPFVFLMIEQNTKSPLFMGKVVNPTQK
modifications: disulphide 79-306 present in ~90% of molecules
notes: alpha1-antitrypsin, 'M' allele, engineered disulphide between helix C and the C-terminus of helix I, on the Cys232Ser background; also called 79-306 double mutant; source: E. coli XL-1 blue, pQE-30-based plasmid, purified
With B1, the binding result in series [2] is recorded as “binds”.

B2: 11-mer RCL peptide Ac-SEAAASTAVVI-NH2 (peptide)
peptide: Ac-SEAAASTAVVI-NH2
notes: model peptide corresponding with the reactive centre loop (RCL) of anti-thrombin; source: synthetic peptide
In the case of B2, the “fold increase in the rate of peptide incorporation with mAb4B12 against the non-antibody-bound control” value in series [3] stood at 2.5 fold.
